In patent publication US20100021390A1, “Fluorescent Analogs Of The Islet Amyloid Polypeptide” (The Research Foundation of State University of New York, priority 2008, published 2010):
Residue numbers refer to the chain shown, from its start.

How the values were obtained:
[1] = Control fluorescence of small p-cyanophenylalanine peptide in solvents and buffer; assay type: physicochemical
Excerpt: In vitro assays of amyloid formation often involve solubilizing the peptide of interest in a fluorinated alcohol, typically hexafluoroisopropanol (HFIP). The fibrillization reaction is initiated by diluting the stock solution into aqueous buffer. […] A small, soluble p-cyanophenylalanine containing peptide (Gly-PheC≡N-Ala-Ala) was synthesized for the control studies. […] The fluorescence intensity was reduced by approximately 30%.

[2] = Thioflavin-T fluorescence kinetic assay of amyloid (fibril) formation by the peptides; assay type: physicochemical; settings: 32 μM peptide, 20 mM Tris-HCl, 2% HFIP
Excerpt: (§1) Wild-type IAPP, IAPP-Y37FC≡N and a G-FCN-A-A tetrapeptide were synthesized and the disulfide bond in IAPP was formed using dimethyl sulfoxide (DMSO) based oxidation as described in Abedini et al., Analytical Biochemistry 351, 181-186 (2006) incorporated herein by reference. The synthesis of peptides is well known in the art. Synthesizers such as the Applied Biosystems 433A are commercially available with ample instructions for use and are generally accessible to practitioners in the art. Fmoc-4-cyanoPhe was obtained from NovaBiochem. Peptides were purified via reverse phase HPLC and the identities confirmed by MALDI mass spectroscopy. Thioflavin-T fluorescence experiments were performed with a Jobin Yvon Horiba fluorescence spectrophotometer or with an Applied Phototechnology fluorescence spectrophotometer. P-cyanoPhe fluorescence was excited at 240 nm and detected at 296 nm with instrument slit widths of 10 nm on an Applied Photon Technologies fluorimeter. […]
(§2) Fibrillization reactions were initiated by diluting the stock 50-fold into buffered (20 mM Tris-HCl, pH 7.4) aqueous solution. […] The spectrum is the average of three repeats in a 0.1 cm quartz cuvette and recorded over a range of 190-250 nm, at 1 nm intervals, with an averaging time of three seconds per scan. […]

[3] = p-Cyanophenylalanine fluorescence kinetic assay of amyloid formation by the peptides; assay type: physicochemical; settings: 32 μM peptide, 20 mM Tris-HCl, 2% HFIP
Excerpt: as §1, §2

hIAPP-Y37FC≡N = biological target: T1, hIAPP-Y37FC≡N (Homo sapiens, UniProt P10997); test: p-Cyanophenylalanine fluorescence-detected kinetics of hIAPP-Y37FC≡N amyloid formation in presence and absence of rifampicin; assay type: biochemical; settings: no rifampicin, 32 μM peptide
T1 construct: hIAPP is 37 residues in length, contains a disulfide bond linking residues 2 and 7 and has an amidated C-terminus; made in house; host or cells: chemical synthesis (Fmoc solid phase; Fmoc-4-cyanoPhe from NovaBiochem)
T1 sequence (P10997 with tags, fused parts or gaps): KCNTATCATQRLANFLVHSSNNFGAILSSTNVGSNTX
Procedure: Thioflavin-T Fluorescence. All fluorescence experiments were performed with a Jobin Yvon Horiba fluorescence spectrophotometer or with an Applied Phototechnology Fluorescence Spectrophotometer. An excitation wavelength of 450 nm and emission wavelength of 485 nm was used for the thioflavin-T studies. The excitation and emission slits were set at 5 nm. A 1.0 cm cuvette was used and each point was averaged for 1 minute. All solutions for these studies were prepared by diluting filtered stock solution (0.45 μm filter) into a Tris-HCl buffer (pH 7.4) and thioflavin-T solution immediately before the measurement. The final concentration was 32 μM peptide and 25 μM thioflavin-T with or without rifampicin in 2% HFIP for all experiments. The final concentration of ascorbic acid used in antioxidant experiments was 83 μM. All solutions were stirred during the fluorescence experiments. P-cyanophenylalanine fluorescence was excited at 240 nm and detected at 296 nm, with both excitation and emission slits of 10 nm.

[4] = biological target: the molecule itself; test: cell-based or functional assay

Question: For Gly-PheC≡N-Ala-Ala, which “reduction of fluorescence intensity” value ([1]; 20 mM Tris-HCl) is on record?
Answer: approximately 30%

Question: And the “fluorescence intensity in water vs 2% HFIP” value ([1]; water, 2% HFIP, very similar in 100% HFIP)?
Answer: the same

Question: Which “time of the growth period (20 to 80% completion) by thioflavin-T fluorescence” value ([2]; pH 7.4) does the source give for “KCNTATCATQRLANFLVHSSNNFGAILSSTNVGSNTFC≡N (HELM PEPTIDE1{K.C.N.T.A.T.C.A.T.Q.R.L.A.N.F.L.V.H.S.S.N.N.F.G.A.I.L.S.S.T.N.V.G.S.N.T.[N#Cc1ccc(C[C@H](N[*:1])C(=O)[*:2])cc1].[am]}$PEPTIDE1,PEPTIDE1,2:R3-7:R3$$$V2.0; N-terminus assumed; SMILES CC[C@H](C)[C@H](NC(=O)[C@H](C)NC(=O)CNC(=O)[C@H](Cc1ccccc1)NC(=O)[C@H](CC(N)=O)NC(=O)[C@H](CC(N)=O)NC(=O)[C@H](CO)NC(=O)[C@H](CO)NC(=O)[C@H](Cc1c[nH]cn1)NC(=O)[C@@H](NC(=O)[C@H](CC(C)C)NC(=O)[C@H](Cc1ccccc1)NC(=O)[C@H](CC(N)=O)NC(=O)[C@H](C)NC(=O)[C@H](CC(C)C)NC(=O)[C@H](CCCNC(=N)N)NC(=O)[C@H](CCC(N)=O)NC(=O)[C@@H](NC(=O)[C@H](C)NC(=O)[C@@H]1CSSC[C@H](NC(=O)[C@@H](N)CCCCN)C(=O)N[C@@H](CC(N)=O)C(=O)N[C@@H]([C@@H](C)O)C(=O)N[C@@H](C)C(=O)N[C@@H]([C@@H](C)O)C(=O)N1)[C@@H](C)O)C(C)C)C(=O)N[C@@H](CC(C)C)C(=O)N[C@@H](CO)C(=O)N[C@@H](CO)C(=O)N[C@H](C(=O)N[C@@H](CC(N)=O)C(=O)N[C@H](C(=O)NCC(=O)N[C@@H](CO)C(=O)N[C@@H](CC(N)=O)C(=O)N[C@H](C(=O)N[C@@H](Cc1ccc(C#N)cc1)C(N)=O)[C@@H](C)O)C(C)C)[C@@H](C)O) [hIAPP-Y37FC≡N, human IAPP with Tyr-37 replaced with p-cyanoPhe]” here?
Answer: 247 ± 12 s

Question: And the “midpoint (t50) of amyloid formation as determined by thioflavin-T fluorescence” value ([2]; pH 7.4, 25° C.)?
Answer: 1,130±100 s

Question: And the “time of the growth period (20 to 80% completion) by p-cyanophenylalanine fluorescence” value ([3]; pH 7.4)?
Answer: 248 ± 12 s

Question: What about the “midpoint (t50) of amyloid formation as determined by p-cyanophenylalanine fluorescence” value ([3]; pH 7.4, 25° C.) of the same molecule?
Answer: 1,100±100 s

Question: And the “growth phase (10% to 80% completion) in absence of the drug” value (hIAPP-Y37FC≡N)?
Answer: 6 min

Question: What about the “t50 time when rifampicin is absent” value (hIAPP-Y37FC≡N; 2% HFIP, 25° C., pH 7.4) of the same molecule?
Answer: 18 min

B1: hIAPP-Y37FC≡N (peptide)
peptide: T1 sequence (P10997 with tags, fused parts or gaps) with X37F
HELM: PEPTIDE1{K.C.N.T.A.T.C.A.T.Q.R.L.A.N.F.L.V.H.S.S.N.N.F.G.A.I.L.S.S.T.N.V.G.S.N.T.[N#Cc1ccc(C[C@H](N[*:1])C(=O)[*:2])cc1].[am]}$PEPTIDE1,PEPTIDE1,2:R3-7:R3$$$V2.0; N-terminus assumed
SMILES: CC[C@H](C)[C@H](NC(=O)[C@H](C)NC(=O)CNC(=O)[C@H](Cc1ccccc1)NC(=O)[C@H](CC(N)=O)NC(=O)[C@H](CC(N)=O)NC(=O)[C@H](CO)NC(=O)[C@H](CO)NC(=O)[C@H](Cc1c[nH]cn1)NC(=O)[C@@H](NC(=O)[C@H](CC(C)C)NC(=O)[C@H](Cc1ccccc1)NC(=O)[C@H](CC(N)=O)NC(=O)[C@H](C)NC(=O)[C@H](CC(C)C)NC(=O)[C@H](CCCNC(=N)N)NC(=O)[C@H](CCC(N)=O)NC(=O)[C@@H](NC(=O)[C@H](C)NC(=O)[C@@H]1CSSC[C@H](NC(=O)[C@@H](N)CCCCN)C(=O)N[C@@H](CC(N)=O)C(=O)N[C@@H]([C@@H](C)O)C(=O)N[C@@H](C)C(=O)N[C@@H]([C@@H](C)O)C(=O)N1)[C@@H](C)O)C(C)C)C(=O)N[C@@H](CC(C)C)C(=O)N[C@@H](CO)C(=O)N[C@@H](CO)C(=O)N[C@H](C(=O)N[C@@H](CC(N)=O)C(=O)N[C@H](C(=O)NCC(=O)N[C@@H](CO)C(=O)N[C@@H](CC(N)=O)C(=O)N[C@H](C(=O)N[C@@H](Cc1ccc(C#N)cc1)C(N)=O)[C@@H](C)O)C(C)C)[C@@H](C)O
Question: Which results are given for B1?
Answer: midpoint (t50) of amyloid formation, p-cyanophenylalanine fluorescence [4]: 1100 s; midpoint (t50) of amyloid formation, thioflavin-T fluorescence [4]: 1130 s

B2: hIAPP-F15FC≡N (peptide)
peptide: T1 sequence (P10997 with tags, fused parts or gaps) with X37Y
HELM: PEPTIDE1{K.C.N.T.A.T.C.A.T.Q.R.L.A.N.[N#Cc1ccc(C[C@H](N[*:1])C(=O)[*:2])cc1].L.V.H.S.S.N.N.F.G.A.I.L.S.S.T.N.V.G.S.N.T.Y.[am]}$PEPTIDE1,PEPTIDE1,2:R3-7:R3$$$V2.0; N-terminus assumed
SMILES: CC[C@H](C)[C@H](NC(=O)[C@H](C)NC(=O)CNC(=O)[C@H](Cc1ccccc1)NC(=O)[C@H](CC(N)=O)NC(=O)[C@H](CC(N)=O)NC(=O)[C@H](CO)NC(=O)[C@H](CO)NC(=O)[C@H](Cc1c[nH]cn1)NC(=O)[C@@H](NC(=O)[C@H](CC(C)C)NC(=O)[C@H](Cc1ccc(C#N)cc1)NC(=O)[C@H](CC(N)=O)NC(=O)[C@H](C)NC(=O)[C@H](CC(C)C)NC(=O)[C@H](CCCNC(=N)N)NC(=O)[C@H](CCC(N)=O)NC(=O)[C@@H](NC(=O)[C@H](C)NC(=O)[C@@H]1CSSC[C@H](NC(=O)[C@@H](N)CCCCN)C(=O)N[C@@H](CC(N)=O)C(=O)N[C@@H]([C@@H](C)O)C(=O)N[C@@H](C)C(=O)N[C@@H]([C@@H](C)O)C(=O)N1)[C@@H](C)O)C(C)C)C(=O)N[C@@H](CC(C)C)C(=O)N[C@@H](CO)C(=O)N[C@@H](CO)C(=O)N[C@H](C(=O)N[C@@H](CC(N)=O)C(=O)N[C@H](C(=O)NCC(=O)N[C@@H](CO)C(=O)N[C@@H](CC(N)=O)C(=O)N[C@H](C(=O)N[C@@H](Cc1ccc(O)cc1)C(N)=O)[C@@H](C)O)C(C)C)[C@@H](C)O
Question: Which “midpoint (t50) of amyloid formation, p-cyanophenylalanine fluorescence” value [4] does the source give for B2 here?
Answer: 936 s

Question: And the “midpoint (t50) of amyloid formation, thioflavin-T fluorescence” value [4]?
Answer: 913 s

B3: hIAPP-F23FC≡N (peptide)
peptide: T1 sequence (P10997 with tags, fused parts or gaps) with X37Y
HELM: PEPTIDE1{K.C.N.T.A.T.C.A.T.Q.R.L.A.N.F.L.V.H.S.S.N.N.[N#Cc1ccc(C[C@H](N[*:1])C(=O)[*:2])cc1].G.A.I.L.S.S.T.N.V.G.S.N.T.Y.[am]}$PEPTIDE1,PEPTIDE1,2:R3-7:R3$$$V2.0; N-terminus assumed
SMILES: CC[C@H](C)[C@H](NC(=O)[C@H](C)NC(=O)CNC(=O)[C@H](Cc1ccc(C#N)cc1)NC(=O)[C@H](CC(N)=O)NC(=O)[C@H](CC(N)=O)NC(=O)[C@H](CO)NC(=O)[C@H](CO)NC(=O)[C@H](Cc1c[nH]cn1)NC(=O)[C@@H](NC(=O)[C@H](CC(C)C)NC(=O)[C@H](Cc1ccccc1)NC(=O)[C@H](CC(N)=O)NC(=O)[C@H](C)NC(=O)[C@H](CC(C)C)NC(=O)[C@H](CCCNC(=N)N)NC(=O)[C@H](CCC(N)=O)NC(=O)[C@@H](NC(=O)[C@H](C)NC(=O)[C@@H]1CSSC[C@H](NC(=O)[C@@H](N)CCCCN)C(=O)N[C@@H](CC(N)=O)C(=O)N[C@@H]([C@@H](C)O)C(=O)N[C@@H](C)C(=O)N[C@@H]([C@@H](C)O)C(=O)N1)[C@@H](C)O)C(C)C)C(=O)N[C@@H](CC(C)C)C(=O)N[C@@H](CO)C(=O)N[C@@H](CO)C(=O)N[C@H](C(=O)N[C@@H](CC(N)=O)C(=O)N[C@H](C(=O)NCC(=O)N[C@@H](CO)C(=O)N[C@@H](CC(N)=O)C(=O)N[C@H](C(=O)N[C@@H](Cc1ccc(O)cc1)C(N)=O)[C@@H](C)O)C(C)C)[C@@H](C)O
Question: With B3 as the molecule, how does the “midpoint (t50) of amyloid formation, p-cyanophenylalanine fluorescence” value [4] read?
Answer: 982 s

Question: And the “midpoint (t50) of amyloid formation, thioflavin-T fluorescence” value [4]?
Answer: 972 s
